These results are taken from publication PMC10511561, “Synergism between CMG helicase and leading strand DNA polymerase at replication fork” (Nature Communications, 2023).

For one test, the target named is T1, Tof1-Csm3 (yeast, UniProt P53840 1-1238; Q04659 1-317).
T1 construct: Tof1, yeast; Csm3, yeast; Purified beforehand as one complex; also called Tof1 and Csm3; components of the fork protection complex (FPC); source: yeast strain yAE48, galactose-induced, purified (calmodulin resin, TEV elution, Mono Q, Superose 6); not shown: CBP, N-terminal, cleaved
T1 sequence (P53840 whole entry, chain 1 of 2): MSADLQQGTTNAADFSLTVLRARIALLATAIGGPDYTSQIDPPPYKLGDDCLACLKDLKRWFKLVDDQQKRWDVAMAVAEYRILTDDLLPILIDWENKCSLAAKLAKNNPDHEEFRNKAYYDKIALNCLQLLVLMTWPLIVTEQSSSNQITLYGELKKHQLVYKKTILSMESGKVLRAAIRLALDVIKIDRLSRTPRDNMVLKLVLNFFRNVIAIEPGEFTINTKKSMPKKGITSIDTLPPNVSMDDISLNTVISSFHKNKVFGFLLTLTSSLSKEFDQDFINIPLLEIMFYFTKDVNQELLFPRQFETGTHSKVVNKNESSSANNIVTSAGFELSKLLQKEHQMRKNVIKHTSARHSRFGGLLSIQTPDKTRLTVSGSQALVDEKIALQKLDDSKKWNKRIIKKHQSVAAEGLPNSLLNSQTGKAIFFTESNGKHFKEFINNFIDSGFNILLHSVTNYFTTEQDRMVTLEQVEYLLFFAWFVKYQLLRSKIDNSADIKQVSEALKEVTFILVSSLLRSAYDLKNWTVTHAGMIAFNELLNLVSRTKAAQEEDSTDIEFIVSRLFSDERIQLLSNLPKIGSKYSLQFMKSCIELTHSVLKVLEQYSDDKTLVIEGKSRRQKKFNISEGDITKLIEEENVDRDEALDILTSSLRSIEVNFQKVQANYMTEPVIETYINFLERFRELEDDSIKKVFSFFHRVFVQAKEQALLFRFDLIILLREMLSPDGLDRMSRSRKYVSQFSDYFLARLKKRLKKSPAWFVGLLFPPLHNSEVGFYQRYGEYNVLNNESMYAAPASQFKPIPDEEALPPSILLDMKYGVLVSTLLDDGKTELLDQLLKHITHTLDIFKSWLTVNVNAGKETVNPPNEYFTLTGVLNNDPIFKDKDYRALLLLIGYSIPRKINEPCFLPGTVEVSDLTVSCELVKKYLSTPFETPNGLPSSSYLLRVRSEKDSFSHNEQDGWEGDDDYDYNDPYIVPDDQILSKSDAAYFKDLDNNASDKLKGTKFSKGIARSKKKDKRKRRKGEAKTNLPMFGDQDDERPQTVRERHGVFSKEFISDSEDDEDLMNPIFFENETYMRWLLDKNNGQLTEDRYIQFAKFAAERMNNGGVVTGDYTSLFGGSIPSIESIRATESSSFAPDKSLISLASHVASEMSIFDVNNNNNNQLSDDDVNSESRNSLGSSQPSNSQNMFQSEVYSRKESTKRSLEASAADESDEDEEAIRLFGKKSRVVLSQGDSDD
T1 sequence (Q04659 whole entry, chain 2 of 2): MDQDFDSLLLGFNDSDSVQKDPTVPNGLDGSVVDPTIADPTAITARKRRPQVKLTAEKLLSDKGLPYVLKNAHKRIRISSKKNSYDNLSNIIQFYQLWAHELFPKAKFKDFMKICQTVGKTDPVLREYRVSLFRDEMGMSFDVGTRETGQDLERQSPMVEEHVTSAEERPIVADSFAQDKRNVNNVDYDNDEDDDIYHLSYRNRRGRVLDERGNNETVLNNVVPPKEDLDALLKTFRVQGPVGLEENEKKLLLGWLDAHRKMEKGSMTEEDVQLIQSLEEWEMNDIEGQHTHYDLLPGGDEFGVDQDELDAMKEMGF
As to the kind of experiment: cryo-EM structure; replisome assembled at room temperature from 0.7 uM CMG, forked DNA and ATPγS, then 1.5 molar excess of Polε, Ctf4, Tof1-Csm3; 100 mM KCl, 25 mM HEPES pH 7.6, 4 mM MgCl2, 4 mM ATPγS; 10-30% glycerol gradient with glutaraldehyde fixation; States I-VI by 3D classification. The note with it: both partners purified.

The target in test [1] is T2, Pol2 (subunit of Polε in the replisome) (yeast, UniProt P21951 1-2222).
T2 construct: Pol2, yeast, catalytic subunit of Polε; Chain of m2 as it stands in the replisome structure; the catalytic NTD is flexible and not resolved; also called Pol2-CTD; Pol2-ZF2; source: yeast strain yAJ2, purified as part of Polε (calmodulin resin, TEV elution, Mono Q, Superose 6); not shown: CBP, N-terminal, cleaved
T2 sequence (P21951 whole entry): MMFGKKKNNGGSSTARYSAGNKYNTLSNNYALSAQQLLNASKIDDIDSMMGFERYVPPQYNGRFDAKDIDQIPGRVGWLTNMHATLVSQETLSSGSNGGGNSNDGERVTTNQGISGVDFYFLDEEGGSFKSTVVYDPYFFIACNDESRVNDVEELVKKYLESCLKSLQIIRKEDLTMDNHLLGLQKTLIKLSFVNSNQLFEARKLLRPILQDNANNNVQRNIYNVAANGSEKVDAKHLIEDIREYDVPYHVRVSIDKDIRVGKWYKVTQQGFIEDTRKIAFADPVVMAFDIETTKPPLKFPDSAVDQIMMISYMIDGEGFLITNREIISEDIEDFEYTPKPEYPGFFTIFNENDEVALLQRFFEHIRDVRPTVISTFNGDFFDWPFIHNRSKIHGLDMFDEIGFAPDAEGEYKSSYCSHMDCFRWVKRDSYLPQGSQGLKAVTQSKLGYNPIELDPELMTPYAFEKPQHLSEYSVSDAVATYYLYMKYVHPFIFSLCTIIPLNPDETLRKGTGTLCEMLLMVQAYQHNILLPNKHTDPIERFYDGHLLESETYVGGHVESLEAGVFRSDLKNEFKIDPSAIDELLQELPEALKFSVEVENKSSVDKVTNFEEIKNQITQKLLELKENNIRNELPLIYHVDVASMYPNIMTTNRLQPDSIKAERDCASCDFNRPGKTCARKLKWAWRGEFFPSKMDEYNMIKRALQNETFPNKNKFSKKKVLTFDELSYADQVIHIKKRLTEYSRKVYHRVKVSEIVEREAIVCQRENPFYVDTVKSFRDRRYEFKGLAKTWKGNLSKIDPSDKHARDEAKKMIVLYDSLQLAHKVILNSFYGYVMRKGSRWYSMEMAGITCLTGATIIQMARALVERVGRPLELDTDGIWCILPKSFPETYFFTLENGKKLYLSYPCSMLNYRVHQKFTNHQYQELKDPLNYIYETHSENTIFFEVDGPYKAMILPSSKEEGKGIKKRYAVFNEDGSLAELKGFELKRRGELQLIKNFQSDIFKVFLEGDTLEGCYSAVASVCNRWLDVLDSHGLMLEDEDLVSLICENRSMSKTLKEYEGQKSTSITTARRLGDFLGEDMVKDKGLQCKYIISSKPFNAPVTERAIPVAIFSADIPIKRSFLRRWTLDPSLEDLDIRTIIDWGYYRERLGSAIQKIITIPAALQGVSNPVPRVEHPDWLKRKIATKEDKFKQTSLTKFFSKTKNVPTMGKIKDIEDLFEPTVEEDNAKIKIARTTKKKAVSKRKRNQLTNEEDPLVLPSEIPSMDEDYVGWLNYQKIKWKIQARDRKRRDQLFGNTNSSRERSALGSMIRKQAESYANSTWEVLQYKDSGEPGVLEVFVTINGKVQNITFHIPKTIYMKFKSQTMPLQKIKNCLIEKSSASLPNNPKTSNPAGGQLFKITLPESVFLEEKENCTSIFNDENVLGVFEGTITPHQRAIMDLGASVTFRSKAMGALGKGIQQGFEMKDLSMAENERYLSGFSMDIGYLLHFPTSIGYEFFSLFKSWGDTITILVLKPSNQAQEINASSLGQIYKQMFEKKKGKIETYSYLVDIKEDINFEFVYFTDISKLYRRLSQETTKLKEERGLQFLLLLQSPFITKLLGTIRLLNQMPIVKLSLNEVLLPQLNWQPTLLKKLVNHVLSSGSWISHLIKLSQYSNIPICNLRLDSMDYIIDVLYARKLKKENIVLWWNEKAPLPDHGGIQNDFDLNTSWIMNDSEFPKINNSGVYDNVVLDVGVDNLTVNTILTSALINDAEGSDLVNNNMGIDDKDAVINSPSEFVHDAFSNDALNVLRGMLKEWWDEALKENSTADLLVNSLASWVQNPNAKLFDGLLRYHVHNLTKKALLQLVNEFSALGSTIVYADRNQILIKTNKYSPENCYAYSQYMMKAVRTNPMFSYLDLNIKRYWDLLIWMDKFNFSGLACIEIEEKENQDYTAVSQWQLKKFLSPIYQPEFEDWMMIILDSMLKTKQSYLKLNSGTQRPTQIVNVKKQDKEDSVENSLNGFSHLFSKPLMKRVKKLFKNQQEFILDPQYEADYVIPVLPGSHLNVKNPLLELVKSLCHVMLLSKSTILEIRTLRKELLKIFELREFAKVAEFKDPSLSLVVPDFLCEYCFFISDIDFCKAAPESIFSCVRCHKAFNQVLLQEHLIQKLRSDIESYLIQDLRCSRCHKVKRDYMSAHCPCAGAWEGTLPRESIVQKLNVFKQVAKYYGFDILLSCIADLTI
The test is described as above. The following applies: both partners purified.

B1: Mcm6 (subunit of CMG) (natural protein, yeast)
chain: MSSPFPADTPSSNRPSNSSPPPSSIGAGFGSSSGLDSQIGSRLHFPSSSQPHVSNSQTGPFVNDSTQFSSQRLQTDGSATNDMEGNEPARSFKSRALNHVKKVDDVTGEKVREAFEQFLEDFSVQSTDTGEVEKVYRAQIEFMKIYDLNTIYIDYQHLSMRENGALAMAISEQYYRFLPFLQKGLRRVVRKYAPELLNTSDSLKRSEGDEGQADEDEQQDDDMNGSSLPRDSGSSAAPGNGTSAMATRSITTSTSPEQTERVFQISFFNLPTVHRIRDIRSEKIGSLLSISGTVTRTSEVRPELYKASFTCDMCRAIVDNVEQSFKYTEPTFCPNPSCENRAFWTLNVTRSRFLDWQKVRIQENANEIPTGSMPRTLDVILRGDSVERAKPGDRCKFTGVEIVVPDVTQLGLPGVKPSSTLDTRGISKTTEGLNSGVTGLRSLGVRDLTYKISFLACHVISIGSNIGASSPDANSNNRETELQMAANLQANNVYQDNERDQEVFLNSLSSDEINELKEMVKDEHIYDKLVRSIAPAVFGHEAVKKGILLQMLGGVHKSTVEGIKLRGDINICVVGDPSTSKSQFLKYVVGFAPRSVYTSGKASSAAGLTAAVVRDEEGGDYTIEAGALMLADNGICCIDEFDKMDISDQVAIHEAMEQQTISIAKAGIHATLNARTSILAAANPVGGRYNRKLSLRGNLNMTAPIMSRFDLFFVILDDCNEKIDTELASHIVDLHMKRDEAIEPPFSAEQLRRYIKYARTFKPILTKEARSYLVEKYKELRKDDAQGFSRSSYRITVRQLESMIRLSEAIARANCVDEITPSFIAEAYDLLRQSIIRVDVDDVEMDEEFDNIESQSHAASGNNDDNDDGTGSGVITSEPPADIEEGQSEATARPGTSEKKKTTVTYDKYVSMMNMIVRKIAEVDREGAEELTAVDIVDWYLLQKENDLGSLAEYWEERRLAFKVIKRLVKDRILMEIHGTRHNLRDLENEENENNKTVYVIHPNCEVLDQLEPQDSS
notes: Mcm6, yeast; Chain of m1 as it stands in the replisome structure; source: yeast strain yJCZ2, purified as part of CMG (anti-FLAG M2 resin, Mono Q, Superose 6)
B1: in the test with Tof1-Csm3, the binding result was “binds”.

B2: Mcm2 (subunit of CMG) (natural protein, yeast)
chain: MSDNRRRRREEDDSDSENELPPSSPQQHFRGGMNPVSSPIGSPDMINPEGDDNEVDDVPDIDEVEEQMNEVDLMDDNMYEDYAADHNRDRYDPDQVDDREQQELSLSERRRIDAQLNERDRLLRNVAYIDDEDEEQEGAAQLDEMGLPVQRRRRRRQYEDLENSDDDLLSDMDIDPLREELTLESLSNVKANSYSEWITQPNVSRTIARELKSFLLEYTDETGRSVYGARIRTLGEMNSESLEVNYRHLAESKAILALFLAKCPEEMLKIFDLVAMEATELHYPDYARIHSEIHVRISDFPTIYSLRELRESNLSSLVRVTGVVTRRTGVFPQLKYVKFNCLKCGSILGPFFQDSNEEIRISFCTNCKSKGPFRVNGEKTVYRNYQRVTLQEAPGTVPPGRLPRHREVILLADLVDVSKPGEEVEVTGIYKNNYDGNLNAKNGFPVFATIIEANSIKRREGNTANEGEEGLDVFSWTEEEEREFRKISRDRGIIDKIISSMAPSIYGHRDIKTAVACSLFGGVPKNVNGKHSIRGDINVLLLGDPGTAKSQILKYVEKTAHRAVFATGQGASAVGLTASVRKDPITKEWTLEGGALVLADKGVCLIDEFDKMNDQDRTSIHEAMEQQSISISKAGIVTTLQARCSIIAAANPNGGRYNSTLPLAQNVSLTEPILSRFDILCVVRDLVDEEADERLATFVVDSHVRSHPENDEDREGEELKNNGESAIEQGEDEINEQLNARQRRLQRQRKKEEEISPIPQELLMKYIHYARTKIYPKLHQMDMDKVSRVYADLRRESISTGSFPITVRHLESILRIAESFAKMRLSEFVSSYDLDRAIKVVVDSFVDAQKVSVRRQLRRSFAIYTLGH
notes: Mcm2, yeast; Chain of m1 as it stands in the replisome structure; source: yeast strain yJCZ2, purified as part of CMG (anti-FLAG M2 resin, Mono Q, Superose 6)
As for B2, the binding result in test [1] was “binds”.

B3: Mcm5 (subunit of CMG) (natural protein, yeast)
chain: MSFDRPEIYSAPVLQGESPNDDDNTEIIKSFKNFILEFRLDSQFIYRDQLRNNILVKNYSLTVNMEHLIGYNEDIYKKLSDEPSDIIPLFETAITQVAKRISILSRAQSANNNDKDPENTSMDTDSLLLNSLPTFQLILNSNANQIPLRDLDSEHVSKIVRLSGIIISTSVLSSRATYLSIMCRNCRHTTSITINNFNSITGNTVSLPRSCLSTIESESSMANESNIGDESTKKNCGPDPYIIIHESSKFIDQQFLKLQEIPELVPVGEMPRNLTMTCDRYLTNKVIPGTRVTIVGIYSIYNSKNGAGSGRSGGGNGGSGVAIRTPYIKILGIQSDVETSSIWNSVTMFTEEEEEEFLQLSRNPKLYEILTNSIAPSIFGNEDIKKAIVCLLMGGSKKILPDGMRLRGDINVLLLGDPGTAKSQLLKFVEKVSPIAVYTSGKGSSAAGLTASVQRDPMTREFYLEGGAMVLADGGVVCIDEFDKMRDEDRVAIHEAMEQQTISIAKAGITTVLNSRTSVLAAANPIYGRYDDLKSPGDNIDFQTTILSRFDMIFIVKDDHNEERDISIANHVINIHTGNANAMQNQQEENGSEISIEKMKRYITYCRLKCAPRLSPQAAEKLSSNFVTIRKQLLINELESTERSSIPITIRQLEAIIRITESLAKLELSPIAQERHVDEAIRLFQASTMDAASQDPIGGLNQASGTSLSEIRRFEQELKRRLPIGWSTSYQTLRREFVDTHRFSQLALDKALYALEKHETIQLRHQGQNIYRSGV
notes: Mcm5, yeast; Chain of m1 as it stands in the replisome structure; also called Mcm5-CTD; Mcm5-WHD; source: yeast strain yJCZ2, purified as part of CMG (anti-FLAG M2 resin, Mono Q, Superose 6)
Consider B3, for which the binding result in test [1] is recorded as “binds”.

B4: Cdc45 (subunit of CMG) (natural protein, yeast)
chain: MYYGISQFSEAYNKILRNSSSHSSCQLVIFVSCLNIDALCATKMLSLLFKKQLVQSQIVPIFGYSELRRHYSQLDDNINSLLLVGFGGVIDLEAFLEIDPQEYVIDTDEKSGEQSFRRDIYVLDAHRPWNLDNIFGSQIIQCFDDGTVDDTLGEQKEAYYKLLELDEESGDDELSGDENDNNGGDDEATDADEVTDEDEEDEDETISNKRGNSSIGPNDLSKRKQRKKQIHEYEGVLEEYYSQGTTVVNSISAQIYSLLSAIGETNLSNLWLNILGTTSLDIAYAQVYNRLYPLLQDEVKRLTPSSRNSVKTPDTLTLNIQPDYYLFLLRHSSLYDSFYYSNYVNAKLSLWNENGKKRLHKMFARMGIPLSTAQETWLYMDHSIKRELGIIFDKNLDRYGLQDIIRDGFVRTLGYRGSISASEFVEALTALLEVGNSTDKDSVKINNDNNDDTDGEEEEDNSAQKLTNLRKRWVSNFWLSWDALDDRKVELLNRGIQLAQDLQRAIFNTGVAILEKKLIKHLRIYRLCVLQDGPDLDLYRNPLTLLRLGNWLIECCAESEDKQLLPMVLASIDENTDTYLVAGLTPRYPRGLDTIHTKKPILNNFSMAFQQITAETDAKVRIDNFESSIIEIRREDLSPFLEKLTLSGLL
notes: Cdc45, yeast; Chain of m1 as it stands in the replisome structure; source: yeast strain yJCZ2, purified as part of CMG (anti-FLAG M2 resin, Mono Q, Superose 6)
As to B4, in test [1], the binding result is recorded as “binds”.

B5: Mcm4 (subunit of CMG) (natural protein, yeast)
chain: MSQQSSSPTKEDNNSSSPVVPNPDSVPPQLSSPALFYSSSSSQGDIYGRNNSQNLSQGEGNIRAAIGSSPLNFPSSSQRQNSDVFQSQGRQGRIRSSASASGRSRYHSDLRSDRALPTSSSSLGRNGQNRVHMRRNDIHTSDLSSPRRIVDFDTRSGVNTLDTSSSSAPPSEASEPLRIIWGTNVSIQECTTNFRNFLMSFKYKFRKILDEREEFINNTTDEELYYIKQLNEMRELGTSNLNLDARNLLAYKQTEDLYHQLLNYPQEVISIMDQTIKDCMVSLIVDNNLDYDLDEIETKFYKVRPYNVGSCKGMRELNPNDIDKLINLKGLVLRSTPVIPDMKVAFFKCNVCDHTMAVEIDRGVIQEPARCERIDCNEPNSMSLIHNRCSFADKQVIKLQETPDFVPDGQTPHSISLCVYDELVDSCRAGDRIEVTGTFRSIPIRANSRQRVLKSLYKTYVDVVHVKKVSDKRLDVDTSTIEQELMQNKVDHNEVEEVRQITDQDLAKIREVAAREDLYSLLARSIAPSIYELEDVKKGILLQLFGGTNKTFTKGGRYRGDINILLCGDPSTSKSQILQYVHKITPRGVYTSGKGSSAVGLTAYITRDVDTKQLVLESGALVLSDGGVCCIDEFDKMSDSTRSVLHEVMEQQTISIAKAGIITTLNARSSILASANPIGSRYNPNLPVTENIDLPPPLLSRFDLVYLVLDKVDEKNDRELAKHLTNLYLEDKPEHISQDDVLPVEFLTMYISYAKEHIHPIITEAAKTELVRAYVGMRKMGDDSRSDEKRITATTRQLESMIRLAEAHAKMKLKNVVELEDVQEAVRLIRSAIKDYATDPKTGKIDMNLVQTGKSVIQRKLQEDLSREIMNVLKDQASDSMSFNELIKQINEHSQDRVESSDIQEALSRLQQEDKVIVLGEGVRRSVRLNNRV
notes: Mcm4, yeast; Chain of m1 as it stands in the replisome structure; source: yeast strain yJCZ2, purified as part of CMG (anti-FLAG M2 resin, Mono Q, Superose 6)
Turning to B5, the binding result with Tof1-Csm3 was “binds”.
